Measurements as given in patent publication US20240425603A1 (Janssen / Centocor, published 2024).

Tests used:
[1] = biological target: T1, human VEGFR1, full length, over-expressed on cells (human, UniProt P17948 27-1338); assay: cell binding assay (column head prints IC50)
T1 construct: on CHO-K1 or HEK cells; also called hVEGFR1; CHOK1/ human VEGFR1

[2] = biological target: T2, human VEGFR2, over-expressed on HEK293 cells (human, UniProt P35968 20-1356); assay: flow cytometry, single concentration (Table 21)
T2 construct: whole, on cells; also called huVEGFR2; hVEGFR2
T2 sequence (P35968 20-1356): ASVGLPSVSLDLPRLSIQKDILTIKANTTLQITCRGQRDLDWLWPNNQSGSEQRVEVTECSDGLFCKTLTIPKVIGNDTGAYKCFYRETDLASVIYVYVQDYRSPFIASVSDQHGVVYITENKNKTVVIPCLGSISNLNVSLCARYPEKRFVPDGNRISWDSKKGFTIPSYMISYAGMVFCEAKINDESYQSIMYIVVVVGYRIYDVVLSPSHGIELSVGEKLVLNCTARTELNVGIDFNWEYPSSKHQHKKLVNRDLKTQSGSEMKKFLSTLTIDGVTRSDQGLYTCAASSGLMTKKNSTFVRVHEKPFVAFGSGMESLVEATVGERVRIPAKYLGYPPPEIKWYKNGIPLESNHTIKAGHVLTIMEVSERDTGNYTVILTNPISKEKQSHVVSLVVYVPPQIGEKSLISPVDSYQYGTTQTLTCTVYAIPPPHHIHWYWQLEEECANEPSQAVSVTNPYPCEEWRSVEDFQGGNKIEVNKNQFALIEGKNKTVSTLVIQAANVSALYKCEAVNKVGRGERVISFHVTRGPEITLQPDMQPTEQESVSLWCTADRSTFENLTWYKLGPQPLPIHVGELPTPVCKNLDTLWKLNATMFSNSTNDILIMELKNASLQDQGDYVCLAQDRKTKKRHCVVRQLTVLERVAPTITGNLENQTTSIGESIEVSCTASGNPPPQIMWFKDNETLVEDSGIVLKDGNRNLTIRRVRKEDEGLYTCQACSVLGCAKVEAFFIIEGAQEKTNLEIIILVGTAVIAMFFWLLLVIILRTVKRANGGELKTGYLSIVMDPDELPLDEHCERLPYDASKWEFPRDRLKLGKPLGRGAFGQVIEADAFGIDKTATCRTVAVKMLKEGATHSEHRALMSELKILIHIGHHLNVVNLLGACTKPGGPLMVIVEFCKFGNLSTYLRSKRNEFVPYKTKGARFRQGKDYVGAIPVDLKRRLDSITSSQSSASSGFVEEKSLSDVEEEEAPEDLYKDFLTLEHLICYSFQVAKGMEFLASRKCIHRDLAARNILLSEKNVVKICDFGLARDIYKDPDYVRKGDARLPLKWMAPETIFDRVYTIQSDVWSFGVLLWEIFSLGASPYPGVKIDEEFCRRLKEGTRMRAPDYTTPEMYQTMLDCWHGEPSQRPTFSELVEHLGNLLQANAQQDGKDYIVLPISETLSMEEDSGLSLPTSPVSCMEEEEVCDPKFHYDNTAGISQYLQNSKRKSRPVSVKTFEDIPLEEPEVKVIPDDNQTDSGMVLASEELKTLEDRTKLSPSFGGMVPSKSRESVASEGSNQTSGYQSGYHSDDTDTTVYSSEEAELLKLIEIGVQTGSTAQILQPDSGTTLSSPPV

T1 sequence (P17948 27-1338 limits assumed): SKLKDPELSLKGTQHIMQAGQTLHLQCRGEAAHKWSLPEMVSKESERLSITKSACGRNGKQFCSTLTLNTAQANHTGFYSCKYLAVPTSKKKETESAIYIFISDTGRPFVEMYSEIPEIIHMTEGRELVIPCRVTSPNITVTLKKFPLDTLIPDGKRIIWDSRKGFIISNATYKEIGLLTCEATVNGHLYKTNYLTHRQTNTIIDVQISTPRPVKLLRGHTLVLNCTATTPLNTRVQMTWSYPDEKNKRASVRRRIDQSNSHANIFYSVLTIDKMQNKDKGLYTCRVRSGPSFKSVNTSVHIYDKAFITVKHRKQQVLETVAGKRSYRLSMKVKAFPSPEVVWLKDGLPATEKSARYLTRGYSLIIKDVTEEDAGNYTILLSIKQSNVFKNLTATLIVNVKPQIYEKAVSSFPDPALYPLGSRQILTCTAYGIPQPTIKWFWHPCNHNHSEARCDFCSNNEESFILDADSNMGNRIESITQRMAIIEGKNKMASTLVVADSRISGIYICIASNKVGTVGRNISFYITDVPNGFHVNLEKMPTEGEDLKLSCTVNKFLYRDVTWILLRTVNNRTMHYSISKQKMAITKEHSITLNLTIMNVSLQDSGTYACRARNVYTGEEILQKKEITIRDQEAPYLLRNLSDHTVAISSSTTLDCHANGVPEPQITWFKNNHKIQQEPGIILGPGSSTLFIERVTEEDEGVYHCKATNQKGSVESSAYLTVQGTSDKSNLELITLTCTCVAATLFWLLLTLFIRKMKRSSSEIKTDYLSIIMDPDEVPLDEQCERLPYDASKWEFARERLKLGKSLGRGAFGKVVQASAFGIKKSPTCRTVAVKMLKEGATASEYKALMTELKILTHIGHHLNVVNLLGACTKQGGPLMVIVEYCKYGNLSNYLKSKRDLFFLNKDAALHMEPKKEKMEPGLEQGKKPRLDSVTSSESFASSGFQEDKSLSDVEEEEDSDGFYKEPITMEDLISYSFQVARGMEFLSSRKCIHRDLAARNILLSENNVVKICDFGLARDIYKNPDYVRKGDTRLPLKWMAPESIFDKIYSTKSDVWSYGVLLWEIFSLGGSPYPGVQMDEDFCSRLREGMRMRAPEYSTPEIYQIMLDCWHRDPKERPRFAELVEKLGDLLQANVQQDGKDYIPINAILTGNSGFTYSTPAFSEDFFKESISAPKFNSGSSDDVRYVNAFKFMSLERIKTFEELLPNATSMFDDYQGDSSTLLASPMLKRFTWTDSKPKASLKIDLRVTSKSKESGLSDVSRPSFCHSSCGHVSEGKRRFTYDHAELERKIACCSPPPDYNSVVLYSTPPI

B1: VGFB54 (antibody, human IgG1, lambda, L234A L235A, V domains shown)
VH: EVQLLESGGGSVQPGGSLRLSCTASGFNFEDYGMNWVRQAPGKGLDWVSSINRNGDISTYHVDSVKGRFTISRDNSKNTLYLQMNSLRAEDTAIYYCTKNHDYHGMDVWGQGTTVTVSS
VL: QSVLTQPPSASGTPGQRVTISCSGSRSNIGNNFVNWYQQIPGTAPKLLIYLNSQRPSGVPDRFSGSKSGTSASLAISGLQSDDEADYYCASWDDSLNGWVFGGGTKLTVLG
notes: human IgG1 (L234A/L235A/D265S), lambda, 2H:2L; from OmniChicken
IC50 [1]: 0.198 nM

B2: VGFB71 (antibody, human IgG1, lambda, L234A L235A, V domains shown)
VH: EVQLLESGGGLVQPGGSLRLSCEASGFIFRDYNMNWVRQAPGKGLEWVSIITNDGSSTAYSDSVKGRFTISRDNSKNSLYLQMNSLRAEDTAIYYCVKVYYGMDDWGQGTTVTVSS
VL: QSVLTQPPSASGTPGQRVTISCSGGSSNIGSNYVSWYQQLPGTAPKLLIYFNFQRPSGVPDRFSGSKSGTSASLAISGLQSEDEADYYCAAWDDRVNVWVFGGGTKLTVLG
notes: human IgG1 (L234A/L235A/D265S)
binding result [2]: no binding (tested: 10 nM)
